According to patent US20250346669A1 (DEUTSCHES KREBSFORSCHUNGSZENTRUM STIFTUNG DES FFENTLICHEN …, published 2025):

Experiments:
[1] = target: T1, human prostate specific membrane antigen (PSMA) (human, UniProt Q04609 1-750); test: flow cytometry on PSMA-transfected Sp2/0 cells
T1 construct: whole, on cells; also called PMSA; FOLH1
Description: Binding (FIG. 5A), lack of binding competition (FIG. 5B) and shift of the PSMA antigen upon antibody binding (FIG. 5C) was assessed by flow cytometry using PSMA-transfected Sp2/0 cells. To this end different α-PSMA antibodies were incubated with these cells in 96-well plates for 30-45 min at 4° C. Cells were then washed and incubated with a PE-conjugated goat-anti-mouse F(ab)₂ fragment (FIGS. 5A, 5C) (Jackson ImmunoResearch) or a PE-goat-anti-human FC-γ specific fragment (Jackson ImmunoResearch) (B). Cells were analyzed on a FACSCalibur (BD Biosciences). […] For the determination of antigen shift (FIG. 5C) PSMA expressing cells were incubated with the indicated antibodies at the beginning of the experiment and again after 24 hrs and before FACS analysis with a saturating amount (10 μg/ml) of the respective antibody. PSMA expression by untreated cells served as a reference (100% PSMA expression)

[2] = target: T1, human prostate specific membrane …; test: flow cytometry on PSMA-expressing 22RV1 cells
Description: To this end, the cells were incubated with the indicated antibodies in 96 well plates for 30-45 min at 4° C. Upon incubation cells were washed and incubated with a secondary PE-goat-anti-human FC-γ specific fragment (Jackson ImmunoResearch). Cells were analyzed on a FACSCalibur (BD Biosciences).

[3] = target: T1, human prostate specific membrane …; test: in vivo biodistribution of radioisotope labeled CC-1 in mice with 22Rv1 (PSMA positive) or DU145 (PSMA negative) tumors

B1: murine antibody 10B3 (antibody, IgG2b, V domains shown)
VH: QVQLQESGGGLVKPGGSLKLSCAASGFTFSDFYMYWVRQTPEKRLEWVATISDGGGYTSYPDSVKGRFTISRDIAKNNLYLQMNSLKSEDTAKYYCARGLWLRDALDYWGQGTSVTVSS
VL: EIVLTQSPITMAAFLGERITITCSASSSISSNYLHWYQQKPGFSPKLLIYRTSNLASGVPIRFSGSGSGTSYSLTIGTMEAEDVATYYCQQGSYIPFTFGSGTKLEIKR
notes: Mouse hybridoma antibody, isotype IgG2b/kappa; also called mu 10B3; m10B3
binding result [1]: binds

B2: PSMA (humanized h10B3) x CD3 (murine OKT3) bispecific Fabsc format antibody molecule (bispecific antibody, IgG1)
heavy: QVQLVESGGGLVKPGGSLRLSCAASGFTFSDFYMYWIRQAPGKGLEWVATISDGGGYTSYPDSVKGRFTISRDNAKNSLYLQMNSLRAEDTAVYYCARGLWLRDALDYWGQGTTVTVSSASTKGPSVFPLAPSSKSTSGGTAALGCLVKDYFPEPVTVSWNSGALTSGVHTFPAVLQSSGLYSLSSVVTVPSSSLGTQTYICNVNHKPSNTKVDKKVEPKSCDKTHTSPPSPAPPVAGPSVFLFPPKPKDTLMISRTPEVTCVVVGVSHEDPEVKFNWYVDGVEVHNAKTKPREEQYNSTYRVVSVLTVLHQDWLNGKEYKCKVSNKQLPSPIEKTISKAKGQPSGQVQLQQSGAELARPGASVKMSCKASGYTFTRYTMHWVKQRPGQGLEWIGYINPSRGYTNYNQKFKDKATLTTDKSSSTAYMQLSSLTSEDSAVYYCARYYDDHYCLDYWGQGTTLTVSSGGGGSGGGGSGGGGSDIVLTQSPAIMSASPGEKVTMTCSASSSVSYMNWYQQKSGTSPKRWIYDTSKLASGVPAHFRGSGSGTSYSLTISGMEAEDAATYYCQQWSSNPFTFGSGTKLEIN
light: EIVLTQSPATLSLSPGERATLSCSASSSISSNYLHWYQQKPGQAPRLLIYRTSNLASGIPARFSGSGSGTDYTLTISRLEPEDFAVYYCQQGSYIPFTFGQGTKLEIKRTVAAPSVFIFPPSDEQLKSGTASVVCLLNNFYPREAKVQWKVDNALQSGNSQESVTEQDSKDSTYSLSSTLTLSKADYEKHKVYACEVTHQGLSSPVTKSFNRGEC
notes: Heavy chain: h10B3 VH, IgG1 CH1, hinge, modified CH2, beginning of CH3, murine OKT3 scFv; also called h10B3xOKT3 Fabsc
binding result [2]: binds

B3: PSMA (humanized h10B3) x CD3 (humanized hUCHT1) bispecific IgGsc format antibody molecule (bispecific antibody)
heavy: QVQLVESGGGLVKPGGSLRLSCAASGFTFSDFYMYWIRQAPGKGLEWVATISDGGGYTSYPDSVKGRFTISRDNAKNSLYLQMNSLRAEDTAVYYCARGLWLRDALDYWGQGTTVTVSSASTKGPSVFPLAPSSKSTSGGTAALGCLVKDYFPEPVTVSWNSGALTSGVHTFPAVLQSSGLYSLSSVVTVPSSSLGTQTYICNVNHKPSNTKVDKKVEPKSCDKTHTCPPCPAPPVAGPSVFLFPPKPKDTLMISRTPEVTCVVVGVSHEDPEVKFNWYVDGVEVHNAKTKPREEQYNSTYRVVSVLTVLHQDWLNGKEYKCKVSNKQLPSPIEKTISKAKGQPREPQVYTLPPSRDELTKNQVSLTCLVKGFYPSDIAVEWESNGQPENNYKTTPPVLDSDGSFFLYSKLTVDKSRWQQGNVFSCSVMHEALHNHYTQKSLSLSPGKSGDIQMTQSPSSLSASVGDRVTITCRASQDIRNYLNWYQQKPGKAPKLLIYYTSRLESGVPSRFSGSGSGTDYTLTISSLQPEDFATYYCQQGNTLPWTFGQGTKVEIKGGGGSGGGGSGGGGSEVQLVESGGGLVQPGGSLRLSCAASGYSFTGYTMNWVRQAPGKGLEWVALINPYKGVSTYNQKFKDRFTISVDKSKNTAYLQMNSLRAEDTAVYYCARSGYYGDSDWYFDVWGQGTLVTVSS
light: B2 light
notes: also called CC-1; PSMAxCD3 (h10B3xUCHT1)-IgGsc
binding result [3]: binds
